From patent publication US20260250410A1, “ANTIBODY AND USE THEREOF” (SICHUAN HUIYU PHARMACEUTICAL CO., LTD., priority 2022, published 2026)

Tests used:
Format in all cases: cell-based, human
PC3 cells = assay: Endocytosis capacity of murine monoclonal antibody (flow cytometry internalization); settings: antibody 1.5 μg/mL; for Internalization PC3 (%) 0.5 h: PC3, 0.5 h at 37° C.; for Internalization PC3 (%) 1 h: PC3, 1 h at 37° C.; for Internalization PC3 (%) 2 h: PC3, 2 h at 37° C.
Procedure, shortened: (§1)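 MDA-MB-231 and PC3 cells (EDTA-detached, Fc-blocked) bound with 1.5 μg/mL test antibody at 4° C for 30 min, washed, then held at 37° C for 0.5, 1 or 2 h. Surface antibody detected with PE anti-human IgG Fc by flow cytometry; internalization (%) = (Geo-MFI 0 h − Geo-MFI at time point)/Geo-MFI 0 h × 100%.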

MDA-MB-231 cells [1] = assay: as above; settings: antibody 1.5 μg/mL; for Internalization MDA-MB-231 (%) 0.5 h: MDA-MB-231, 0.5 h at 37° C.; for Internalization MDA-MB-231 (%) 1 h: MDA-MB-231, 1 h at 37° C.; for Internalization MDA-MB-231 (%) 2 h: MDA-MB-231, 2 h at 37° C.
Procedure, shortened: as §1

MDA-MB-231 cells [2] = assay: Transwell tumor cell migration experiment; settings: MDA-MB-231, antibody 10 μg/ml
Description: In order to determine the effect of antibodies on tumor cell metastasis, the migration ability of tumor cells was examined in this study according to a transwell experiment. The specific cell migration experiment involved culturing and collecting MDA-MB-231 cells, washing them once with PBS, adjusting the density to 8×10^5 cells/mL, adding the antibody to be tested to the cells such that the working concentration thereof was 10 μg/ml, co-incubating for 30 mins, adding a cell suspension to the upper chamber of the transwell chamber, placing the transwell chamber in the incubator for 12-48 h, then removing the chamber (transwell chamber, to examine cell migration ability), immobilizing the cells, staining the cells with crystal violet for 15 mins, washing, air drying, mounting, and taking photos of 4-5 fields of view under a microscope, and counting the number or area of the stained cells using imageJ analysis software, the number or area was used as the basis for determining tumor cell migration.

MDA-MB-231 cells [3] = assay: Effect of antibody on tumor cell proliferation (CellTiter-Glo); settings: MDA-MB-231, 96 h
Description: (§2) 3000 cells (breast cancer MDA-MB-231, prostate cancer PC-3 cells)/well were plated onto 96-well plates overnight, an antibody at a final concentration of 500 nM to 0.00128 nM (100 nM to 0.000256 nM, 100, 20, 4, 0.8, 0.16, 0.032, 0.0064, 0.00128, 0.000256 nM, respectively) was added; after a 5-fold dilution across 9 concentration points and culturing in a CO2 incubator at 37° C. for 96 h, half of the medium (100 μL) was discarded, and 100 μL of CellTiter-Glo Luminescent Cell Viability assay reagent (Promega, cat #G7570) was added to detect signal values on a BMG microplate reader. The inhibition of antibody on tumor cell growth was calculated by graphpad fitting based on the signal value and antibody concentration.

PC-3 cells = assay: as above; settings: PC-3, 96 h
Description: as §2

| Molecule | Internalization PC3 (%) 0.5 h (PC3 cells) [%] | Internalization PC3 (%) 1 h (PC3 cells) [%] | Internalization PC3 (%) 2 h (PC3 cells) [%] | Internalization MDA-MB-231 (%) 0.5 h (MDA-MB-231 cells [1]) [%] | Internalization MDA-MB-231 (%) 1 h (MDA-MB-231 cells [1]) [%] | Internalization MDA-MB-231 (%) 2 h (MDA-MB-231 cells [1]) [%] | effect on tumor cell migration (transwell, FIG. 4c) (MDA-MB-231 cells [2]) | effect on tumor cell growth (FIG. 4a) (MDA-MB-231 cells [3]) | effect on tumor cell growth (FIG. 4b) (PC-3 cells) |
| --- | --- | --- | --- | --- | --- | --- | --- | --- | --- |
| G10F6: anti-CDCP1 murine monoclonal antibody (hybridoma); VH SEQ ID NO: 256, VL SEQ ID NO: 306 (antibody, V domains shown, G10F6 heavy chain variable region; G10F6 light chain variable region) VH: EVKLVESGPGILQPSQTLSLTCSFSGFSLSTSGMGVSWVRQPSGKGLEWLAHIYWDDDKRYNPSLKGRLTISKDTPRNQVFLEITSVDTTDTATYYCARVPGNWDEDAMDYWGQGTTVTVSS VL: DIQMTQSPLSLPVSLGDQASISCRSSQNIVHTNGNTYLEWYLQKVGQSPKLLIYKVSNRFSGVPDRFSGSGSGTDFTLKISRVEAEDLGVYYCFQGSHVPYTFGGGTKLEIK | 3.36 | 20.68 | 54.36 | 34.49 | 50.70 | 67.02 | better capability to inhibit tumor cell migration than SEQ135 | did not exhibit an effect on tumor cell growth | did not exhibit an effect on tumor cell growth |
| 10D2: anti-CDCP1 murine monoclonal antibody (hybridoma); VH SEQ ID NO: 260, VL SEQ ID NO: 310 (antibody, V domains shown, 10D2 heavy chain variable region; 10D2 light chain variable region) VH: EVQLQQSGPELKKPGETVKISCKASGYTFTDYSMHWVKQAPGKGLKWMGWINTETGQPTYADDFKGRFAFSLETSASSAYLQINNLKNEDTATYFCTRTFYYDYVGDYWGQGTTVTVSS VL: DIVMTQSHKFMSTSVGDRVSITCKASQDVSTAVAWYRQKPGQSPKLLIYWASTRHTGVPDRLTGSGSGTDFALTINSVQAEDLALYYCQQHSSTPYTFGGGTKLEIK | 21.48 | 41.99 | 64.19 | 46.38 | 57.85 | 70.77 | better capability to inhibit tumor cell migration than SEQ135 | did not exhibit an effect on tumor cell growth | did not exhibit an effect on tumor cell growth |
| 3C11: anti-CDCP1 murine monoclonal antibody (hybridoma); VH SEQ ID NO: 240, VL SEQ ID NO: 291 (antibody, V domains shown, 3C11 heavy chain variable region; 3C11 light chain variable region) VH: EVQLQQSGTVLARPGASVKMSCKASGYNFISYWLHWIKQRPGQGLEWIGGIYPGNTDTTYNQKFKGKAKVTAVTSATTAYMELSSLTNEDSAVYYCIRYDYDRGMDYWGQGTTVTVSS VL: DIQMTQSPSSFSVSLGDRVTITCRASEDIYYRLAWYQQKPGNAPRLLISGATALETGVPSRFSGSGSGKDYTLSITSLQTEDVATYYCQHYWNIPWTFGGGTKLEIK | 28.45 | 39.70 | 59.90 | 28.50 | 36.16 | 52.23 | better capability to inhibit tumor cell migration than SEQ135 | did not exhibit an effect on tumor cell growth | did not exhibit an effect on tumor cell growth |
| 3B12H5: anti-CDCP1 murine monoclonal antibody (hybridoma); VH SEQ ID NO: 239, VL SEQ ID NO: 290 (antibody, V domains shown, 3B12H9/3B12H5 heavy chain variable region; 3B12H5 light chain variable region) VH: EVQLQQSGTVLARPGASVKMSCKASGYSFTIYWVHWVKQRPGQGLEWIGAVYPGNDDTSYNQNFKGKAKLTAVTSATTAYMELSSLTIDDSAVYYCTRHTYDEVFDYWGQGTTVTVSS VL: DIVMTQSPSSLSVSLGDRVTITCKASEDIYYRLAWYQQKPGNAPRLLISGGTNLEAGIPSRFSGSGSGKDYTLSITSLQTEDVAIYYCQHYWNTPWTFGGGTKLEIK | 16.54 | 30.28 | 50.50 | 20.76 | 29.93 | 49.69 | better capability to inhibit tumor cell migration than SEQ135 | did not exhibit an effect on tumor cell growth | did not exhibit an effect on tumor cell growth |
| 6A7: anti-CDCP1 murine monoclonal antibody (hybridoma); VH SEQ ID NO: 243, VL SEQ ID NO: 294 (antibody, V domains shown, 6A7 heavy chain variable region; 6A7 light chain variable region) VH: EVQLKESGAELVRPGASVKVSCKASGYSFTSYWMNWVKQRPGQGLEWIGMIHPSDSETKLNQKFRDRASLTVDKSSSTAYMQLSSPTSEDSAVYYCTINYESFYYAMDYWGQGTTVTVSS VL: DIVMTQSPASLAVSLGQRATISCRASKSVSTSGYSYMHWYQQKPGQPPKLLLYLASNLESGVPARFSGSGSGADFTLNIHPVEEEDAATYYCLHSRELPYTFGGGTKLEIK | 22.99 | 35.14 | 49.86 | 28.97 | 43.77 | 58.78 | better capability to inhibit tumor cell migration than SEQ135 | did not exhibit an effect on tumor cell growth | did not exhibit an effect on tumor cell growth |
| 8E5: anti-CDCP1 murine monoclonal antibody (hybridoma); VH SEQ ID NO: 258, VL SEQ ID NO: 308 (antibody, V domains shown, 8E5 heavy chain variable region; 8E5 light chain variable region) VH: EVQLKESGPELKKPGETVKISCKASGYTLTDFSMHWLKQAPGKGLKWMGWINTETGAPTYADDFKGRFALSLDTSANTAYLQINNLKNEDTATYFCSRGRDYDPHFDYWGQGTTVTVSS VL: EIVLTQSPATLSVTPGDRVSLSCRASQSISDFLHWYQQRSHESPRLLIKYASQSISGIPSRFGGSGSGSDFTLNINTVEPEDVGMYYCQSAHSFPYTFGGGTKLEIK | 6.54 | 17.17 | 42.94 | 24.32 | 38.20 | 53.26 | better capability to inhibit tumor cell migration than SEQ135 | did not exhibit an effect on tumor cell growth | did not exhibit an effect on tumor cell growth |
